Experimental data reported in patent publication CN112279913A (TAIZHOU BAIYING BIOLOGICAL TECH CO LTD, dated 2021).

Target: T1, 人IL-6重组蛋白 (human, UniProt P05231 30-212, limits assumed)
T1 construct: also called 白细胞介素-6; 白介素6
Experiment: indirect ELISA, IL-6 recombinant protein coated at 2 μg/ml, purified antibody from 10 μg/ml in 3-fold dilutions, HRP goat anti-mouse IgG

Binder | EC50 [µg/mL]
抗人IL-6单克隆抗体 克隆019:8-3F8 (antibody, V domains shown) VH: EVKLEESGGGLVQPGGSMKLSCAASGFTFSNYWMNWVRQSPEKGLEWVAEIRLRSNKYATHYAESVRGRFTISRDDSINYVYLQMNNLRAEDTGIYYCTRPRYEGTFDVWGAGTTVTVSS VL: not shown | < 0.025
抗人IL-6单克隆抗体 克隆019:1-2H3 (antibody, V domains shown) VH: QVQLQQSGPQLVRPGASVKISCKASGYSFNRSWMHWVKQRPGQGLEWIGMIDPSDTETRLNQKFKDKATLTVDESSSTAHMQFKRPTSEDSAVYYCARAYGFSIEFAYWGQGTLVTVSA VL: DIQMSQTSSSLPASLGDRVTISCKASQDIRSYLNWYQQKPDGTVKLLIYYTSRLHSGVPSRFSGSGSGTDFSLTISNLEQEDIATYFCQQGATLPLTFGAGTKLELK | < 0.025
